Test results published in patent US20240076396A1 (Regeneron, published 2024).

How the values were obtained:
[1] = target: T1, hGITR.mFc (dimeric recombinant human GITR ectodomain protein, mouse Fc fusion) (human); experiment: SPR Biacore 2000 25C; CHOt supernatant antibody captured on anti-human Fc; 50 nM hGITR.mFc
T1 construct: also called dimeric human GITR; dimeric GITR
T1 chain: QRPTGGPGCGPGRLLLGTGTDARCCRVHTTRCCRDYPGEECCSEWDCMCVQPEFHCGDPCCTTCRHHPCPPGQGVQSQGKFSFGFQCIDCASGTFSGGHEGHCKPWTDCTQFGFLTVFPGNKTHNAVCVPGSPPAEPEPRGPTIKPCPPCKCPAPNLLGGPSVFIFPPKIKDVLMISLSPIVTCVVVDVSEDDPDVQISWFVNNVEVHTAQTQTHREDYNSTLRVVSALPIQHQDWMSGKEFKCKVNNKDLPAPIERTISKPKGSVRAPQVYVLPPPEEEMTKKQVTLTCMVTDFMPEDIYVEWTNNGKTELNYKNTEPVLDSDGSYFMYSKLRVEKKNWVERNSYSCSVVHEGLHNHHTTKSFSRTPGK
Experimental: (§1) Biacore experiments for antibodies secreted in conditioned culture medium were performed as follows. Using a Biacore 2000 instrument at 25° C., antibodies were captured for 80 seconds at a flow rate of 8 uL/min on a CM5 anti-humanFc-coupled surface. Approximately 1000-2000 RU of each antibody were captured. 100 nM hGITR.mmH (soluble monomeric hGITR, SEQ ID NO: 45) or 50 nM hGITR.mFc (dimeric Macaca fasicularis GITR, SEQ ID NO: 46) were injected over this surface for 2 minutes at a flow rate of 50 uL/min. Dissociation was measured for 2 minutes. The KD and t_{1/2} were calculated by fitting the double-referenced sensorgrams to a 1:1 binding model.

[2] = target: T2, hGITR.mmH (soluble monomeric recombinant human GITR ectodomain protein) (human); experiment: SPR Biacore 2000 25C; CHOt supernatant antibody captured on anti-human Fc; 100 nM hGITR.mmH
T2 construct: also called monomeric human GITR
T2 chain: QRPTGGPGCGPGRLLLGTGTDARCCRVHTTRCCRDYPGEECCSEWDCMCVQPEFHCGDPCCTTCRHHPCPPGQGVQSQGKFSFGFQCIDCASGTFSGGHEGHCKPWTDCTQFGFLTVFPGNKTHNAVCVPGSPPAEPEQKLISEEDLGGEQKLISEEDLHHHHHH
Experimental: as §1

[3] = target: T3, cynomolgus monkey GITR expressed on the cell surface (Macaca fascicularis (cynomolgus monkey)); experiment: cell-based or functional assay
[4] = target: T4, human GITR expressed on the cell surface (human, UniProt Q9Y5U5 26-241); experiment: cell-based or functional assay
T4 sequence: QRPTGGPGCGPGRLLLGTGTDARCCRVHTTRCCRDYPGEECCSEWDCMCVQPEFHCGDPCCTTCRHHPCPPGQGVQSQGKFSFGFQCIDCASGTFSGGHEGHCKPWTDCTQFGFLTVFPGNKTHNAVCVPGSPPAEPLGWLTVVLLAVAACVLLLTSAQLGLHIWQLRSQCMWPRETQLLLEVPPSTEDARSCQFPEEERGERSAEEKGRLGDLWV

[5] = target: T4, human GITR expressed on the cell surface; experiment: cell-based or functional assay; remark: listed apart in the source
[6] = target: T5, Jurkat/hCD20 cells (human CD20, no GITR; negative control cell line) (human, UniProt P11836 1-297); experiment: flow cytometry on Jurkat/hCD20 control cells; max MFI over secondary antibody alone
T5 construct: whole, on cells; Control cell line without engineered GITR; the only named engineered protein on it is hCD20
T5 sequence (looked up): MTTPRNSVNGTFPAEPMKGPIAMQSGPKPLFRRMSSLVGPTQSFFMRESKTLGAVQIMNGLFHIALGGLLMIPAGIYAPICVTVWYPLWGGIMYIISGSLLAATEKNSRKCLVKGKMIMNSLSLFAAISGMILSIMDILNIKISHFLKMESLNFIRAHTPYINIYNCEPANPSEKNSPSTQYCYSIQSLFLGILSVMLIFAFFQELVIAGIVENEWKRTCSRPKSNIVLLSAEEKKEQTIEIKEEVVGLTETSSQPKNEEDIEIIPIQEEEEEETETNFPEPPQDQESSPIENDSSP
Experimental: Flow cytometry was used to evaluate mAb1 binding to Jurkat/hCD20/hGITR cells and Jurkat/hCD20/MfGITR cells. Jurkat/hCD20 cells were used as a negative control cell line for GITR binding. Cells were added to a 96-well V-bottom plate (2×10⁵ to 4×10⁵ cells/well) and incubated in Fc block solution, followed by successive incubation on ice with primary antibody (mAb1 or IgG1 isotype control) at final concentrations ranging from 18 pM to 300 nM and a secondary antibody (AF647-conjugated anti-human IgG) at 5 μg/mL. Cells were then stained with LIVE/DEAD Fixable Green Dead Cell Stain according to the manufacturer's instructions. […] Data were analyzed with Flow.lo software. For EC₅₀ (effective concentration at 50% activity) determinations, measured geometric MFI values were analyzed using a 4-parameter logistic equation over a 9-point response curve with GraphPad Prism. The fold binding was determined by taking the ratio of the highest MFI on the curve to the MFI of the wells containing secondary antibody only.
^a The maximum MFI was the highest mean MFI value within the concentration range tested (18 pM to 300 nM). ^b Fold binding was calculated as the maximum MFI above background (secondary antibody alone). h, Human; Mf, Macaca fascicularis (cynomolgus monkey); ND, Not determined because concentration-dependent binding was not observed

[7] = target: T3, cynomolgus monkey GITR expressed on the …; experiment: cell-based or functional assay; remark: listed apart in the source
[8] = target: T4, human GITR expressed on the cell surface; experiment: cell-based or functional assay; remark: listed apart in the source

B1: mAb1 (antibody, human IgG1, kappa, V domains shown)
VH: QVQLQESGPGLVKPSETLSLTCIVSGGSISGYFWNWIRQPPGKGLEWIGYIYYSGTTIYNPSLKSRFTISLDTSKNQFSLKLTSVTAADTAVYYCARESYDPSPRYFDHWGQGTLVTVSS
VL: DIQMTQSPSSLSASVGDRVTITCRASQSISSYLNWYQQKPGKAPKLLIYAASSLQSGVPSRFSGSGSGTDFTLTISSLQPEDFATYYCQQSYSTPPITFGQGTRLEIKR
notes: Human IgG1; N101D variant of CompAb1; also called N101D Variant; N101D
Kd [1]: 0.0813 nM | t1/2 [1]: 5.75 h | Kd [2]: 14.8 nM | t1/2 [2]: 7.52 min | EC50, ADCC against Jurkat/hCD20/MfGITR, Donor 6500V NK cells [3]: 0.0108 nM | EC50, ADCC against Jurkat/hCD20/MfGITR, Donor 6700R NK cells [3]: 0.0121 nM | EC50, ADCC against Jurkat/hCD20/hGITR, Donor 6500V NK cells [4]: 0.0122 nM | EC50, ADCC against Jurkat/hCD20/hGITR, Donor 6700R NK cells [4]: 0.013 nM | EC50, anti-CD3-mediated primary CD4+ T-cell proliferation, Donor 1900G [5]: 0.43 nM | EC50, anti-CD3-mediated primary CD4+ T-cell proliferation, Donor 2000U [5]: 0.0391 nM | EC50, anti-CD3-mediated primary CD4+ T-cell proliferation, Donor 3600Y [5]: 17.2 nM | EC50, anti-CD3-mediated primary CD4+ T-cell proliferation, Donor 3800U [5]: 0.107 nM | EC50, anti-CD3-mediated primary CD4+ T-cell proliferation, Donor 34001 [5]: 0.193 nM | Fold Change in Activity, anti-CD3-mediated primary CD4+ T-cell proliferation, Donor 1900G [5]: 3.14 fold | Fold Change in Activity, anti-CD3-mediated primary CD4+ T-cell proliferation, Donor 2000U [5]: 2.45 fold | Fold Change in Activity, anti-CD3-mediated primary CD4+ T-cell proliferation, Donor 3600Y [5]: 2.3 fold | Fold Change in Activity, anti-CD3-mediated primary CD4+ T-cell proliferation, Donor 3800U [5]: 2.45 fold | Fold Change in Activity, anti-CD3-mediated primary CD4+ T-cell proliferation, Donor 34001 [5]: 2.62 fold | Fold Change in Activity, anti-CD3-mediated primary CD4+ T-cell proliferation, Donor 41003 [5]: 2.54 fold | Fold Binding [6]: 1.06 fold | EC50, ADCP of Jurkat/hCD20/MfGITR [7]: 0.51 nM | Fold Change in Activity, ADCP of Jurkat/hCD20/MfGITR [7]: 6.98 fold | Fold Change in Activity, ADCP of Jurkat/hCD20/hGITR [8]: 5.92 fold
